The values that follow come from patent US5444041A, “Convertible microemulsion formulations” (Ibah, Inc., priority 1992, dated 1995).

One series concerns Spraque-Dawley rats. The experiment in a line: Rectal instillation of calcitonin microemulsions, serum Ca+2 in rats. Format: in vivo, rat. How it is done:
A series of experiments was carried out in rats using the w/o microemulsions of this invention to evaluate them as a vehicle for the rectal delivery of the peptide calcitonin, (used in the treatment of hypercalcemia by lowering Ca++ serum levels), whereby the body fluids of the rat would serve to convert the microemulsion to an o/w emulsion and thus release the calcitonin.
Formulations were produced which ranged from 3% to 15% (v/v) aqueous phase and which ranged from liquids to gels at room temperature. The formulations contained, in addition to the aqueous phase, one to three oils and a blend of two emulsifiers. […] Three formulations with different oil blends were chosen for biological evaluation in juvenile, male rat model (Spraque-Dawley rats; 140-170 gm).
Three w/o microemulsion formulations were tested which contained 3% v/v aqueous phase volume, and varying amounts of calcitonin/ml of emulsion. Two, Formulations A and B below, were formulated as liquids; the third microemulsion (Formulation C) was formulated in semi-solid (suppository) form by addition of a high-melting coconut oil to the microemulsion. […]
Serum was prepared from each blood sample and serum Ca^+2 (free ionized calcium) levels were determined using a Beckman calcium clinical assay kit.

Series [1] in a line: Percent activity of horseradish peroxidase (OPD assay, 492 nm) after storage at 50° C. Format: physicochemical. How it is done:
In Example 10, the protein horseradish peroxidase (HRP), was stored for given times and temperatures, then assayed in vitro, as shown in this example.
After storage for the specified time at 50° C., the microemulsion was then converted to an o/w emulsion by the addition of water. This was achieved by pipetting 30 μL of the microemulsion containing the horseradish peroxidase enzyme into 970 μL of 0.9 wt. % saline (NaCl) solution.
After conversion, the emulsion was then assayed for activity. This activity was compared with the activity of stock solutions of HRP which had been maintained at 50° C. for the same time and then pipetted into saline (30 μL into 970 μL of saline) in the same manner as the microemulsion above. The stock HRP was first diluted to the same HRP concentration as in the aqueous phase of the converted microemulsion.
The assay was carried out as follows:
1. Set spectrophotometer at 492 nm and 25° C.
2. Into the cuvette, pipet 2.97 mL OPD (O-phenylene diamine) buffer solution (1 tab.→26 mL)
3. Establish blank at 492 nm.
4. Into the cuvette, pipet 25 μL diluted control HRP solution. Mix and record the increase in absorbance at 492 nm for 5 minutes.
5. Same procedure is followed for microemulsion w/HRP solution. OPD=O-phenylene diamine
Percent activity was determined by using the following equation: [formula]

For series [2] the following is noted: rat, in vivo. As to the method: A series of experiments was carried out using rats with the w/o microemulsion of this invention to evaluate them as a vehicle for the delivery of the human growth hormone, hGH. The body fluids of the rats served to convert the microemulsion to an o/w emulsion which activated the drug and promoted drug uptake across the mucosal membrane of the rat colon.
The rats were approximately 100 grams and were fasted for 24 hours prior to testing.
The injected group, Group C, received the extracted hGH in a buffer solution at the human equivalent dose of 0.05 mg/kg body weight. The two rectal administration groups, Groups A and B, received ten times the human equivalent dose.
The rats were anaesthetized just prior to dosing. Suppositories (Group A) and the buffer solution (Group B) administered rectally were sealed in the rectum by a plug and liquid cement. Group C animals were injected subcutaneously (SQ). After administering the dosage, serum hGH levels were determined at 30, 60, 120, 180, 240, and 300 minutes. […] The blood was centrifuged and the serum assayed by hGH ELISA (Medix Lab, Foster City, Calif.) for quantitation of the extracted growth hormone.
The AUC (area under the curve) for both routes of administration was determined using the trapezoid rule (M. Gibaldi, Biopharmaceutics and Clinical Pharmacokinetics, Lea and Febiger, Philadelphia, Pa., 1984, pp. 315-16). […]

For the substance calcitonin [Saline], the “serum calcium response to rectal administration (in words)” value with Spraque-Dawley rats is on record as “no significant response”.
For horseradish peroxidase [Control HRP], the “% Activity” value in series [1] (Time 0 hours, converted with saline before assay) was determined as 100%; in series [1] (Time 3 hours), 76%; in series [1] (Time 6 hours), 73%; in series [1] (Time 24 hours) it was 20%; in series [1] (Time 27 hours) it was 20%; in series [1] (Time 48 hours) it was 11%.
For the substance human growth hormone [Group C], in series [2], the “AUC (area under the curve), trapezoid rule” value is listed as “approximately 24.5 ng-hr/ml”.
human growth hormone [hGH in buffer]: the “uptake of the drug” value in series [2] is given as “no uptake of the drug”.
